Experimental data taken from IntAct's records for PubMed 25313826.

B1: Chromatin assembly factor 1 subunit A (Schizosaccharomyces pombe (strain ATCC 38366 / 972)), Q1MTN9 (parent)
chain: MNSESVDSDVAASTSNKGNELCSSSTDITSLSVSSPNESVIHSSHSASEADEYVCKLSYEGNRKKRIYNGSAEAGKEKKLQKQRAQEERIRQKEAERLKREKERQQREQEKKLREQEKIAAKKMKELEKLEKERIRLQEQQRRKEERDQKLREKEEAQRLRQEQILNKERQQLKLNNFFTKGVEKRIAPNENFVADKTDELNEFEKEFRPFFIKHQMSLSKYPSPNESDSFLDEVLSTSKSYPLKLNDIFTPSDAVSSANSLGVSNRNSENEVRQLMSAYQDPSVSKPQEILSCLSQIPIKFIFFYQDVRPPYFGSYTKTHSHGSNVLLNPWLEDEDIDYTYDSEAEWVADEEDDGEDLESEDEEVDNSDDIVEDGDNAFVDDEDDDKDSVNASNTHRSSGPLEVIVEGPVWDSKFLPDFNCLSLIEPISSFSASTYLQIDPKEDLWASQDTAPASSGMTIGPTSSLSDDLQVRFPSEDIPKFIEYVRNSHDNKVFLIENLRHMFPYVTKNIISETLGKVAVRKGKSVSDGWIIKENFASLLSS
partner: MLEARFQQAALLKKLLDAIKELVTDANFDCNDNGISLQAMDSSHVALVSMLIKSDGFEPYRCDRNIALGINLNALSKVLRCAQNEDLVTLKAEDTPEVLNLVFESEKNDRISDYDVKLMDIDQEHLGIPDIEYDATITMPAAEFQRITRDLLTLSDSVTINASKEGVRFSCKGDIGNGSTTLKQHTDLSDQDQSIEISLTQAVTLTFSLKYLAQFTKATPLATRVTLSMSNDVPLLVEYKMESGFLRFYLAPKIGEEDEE

Variants of: B1
Conditions: with pcna_schpo pcn1, Q03392

effect of a mutation on the interaction	Variant
disrupting interaction strength	Q172A;L175A;F178A;F179A
